Read-outs that look alike come from different tables or passages of the source.
Legend:
Format in all cases: cell-based, human
NF-kB = experiment: Multiplex analysis, radiotherapy, TR146 cell lysates
Description: (§1) Oral buccal mucosal cells (TR146) cells were incubated overnight at 37° C. in 5% CO2 incubator. […] The cells were then stimulated with 5-FU (10 mM) for another 24h for chemotherapy and with gamma radiation (3.5 kGy) using Cobalt 60 for radiotherapy. After 24 h, cell culture supernatants were collected from each well and stored at −20° C. till multiplex analysis. For NF-kB estimations, cell lysates were prepared. Levels of biomarkers were estimated using Magpix® multiplex machine. The cells treated with Amifostine (along with 5-FU or radiation) were considered as positive control (PC). Untreated cells (5-FU or radiation alone treated) were used as negative control (NC).
(§2) The percent modulation in each sample was determined as follows:
(§3) [{Concentration of biomarkers (pg/ml) in Control cells (5-FU or radiation alone treated)−Concentration of biomarkers (pg/ml) in SEQ ID NO: 2+5-FU or radiation treated cells)}/Concentration of biomarkers (pg/ml) in Control cells (5-FU or radiation alone treated)]*100

[1] = tested on: oral (buccal) mucosa cells (TR146); experiment: Annexin positive cell population against 5-FU damage
[2] = tested on: oral (buccal) mucosa cells (TR146)
Description: The protective effect of the recombinant lectin on survival of TR146 cells against 5-FU induced damage was determined using following calculations:
The viability of cells was determined as: % Cell viability=(100−% Cytotoxicity); • where, the percentage cytotoxicity corresponding to each treatment was calculated as: % Cytotoxicity=[(R−X)/R]*100, wherein X=Absorbance of cells treated with 5-FU or radiation damage/TI+5-FU, R=Absorbance of Control cells (Untreated) and Percentage protection was calculated as:
{(Absorbance of TI+5-FU or radiation)−(Absorbance of 5-FU or radiation alone)/(Absorbance of Untreated)−(Absorbance of 5-FU alone)}*100

IL-12/IL-23p40 = experiment: Multiplex analysis, chemotherapy (5-FU), TR146; settings: for IL-12/IL-23p40 against chemotherapy induced levels: 5-FU, in words
Description: as §1, §2, §3

[3] = tested on: oral (buccal) mucosa cells (TR146); experiment: Sub(G0/G1) cell population (cell cycle) against 5-FU induced damage; settings: for % Decrease in Apoptotic cells (with respect to control): Sub G0/G1
Description: To determine the effect of test item on cell cycle, oral buccal mucosal cells (TR146) were incubated overnight in 5% CO2 incubator at 37° C. for 24 h. […] After 24 h of treatment, cells were exposed to chemotherapy (5-FU 10 mM) for 24 h or radiotherapy (Gamma radiation (3.5 kGy) using Cobalt 60) for 2 h.
After incubation, cells were harvested by trypsinization and processed for Cell cycle assay. Accordingly, cells were harvested into prelabeled centrifuge tubes and centrifuged at 450 g for 5 min at room temperature (RT, low brake). The supernatants were removed carefully and discarded. 1 ml of 1× phosphate buffer saline (PBS) was added to the pellet and resuspended gently to make homogenous suspension. Cells were centrifuged at 450 g for 5 min, RT (low brake). The supernatant was carefully removed leaving behind approx. 100 μl of PBS. Cells were resuspended gently yet thoroughly in residual PBS. Ice-cold 70% ethanol (100 μl) was added drop-wise into cells in each tube while vortexing at low speed (fixation step). Cells stored at 4° C. for 24 h were centrifuged at 450 g for 5 min, RT (low brake). The supernatant was carefully removed without touching the pellet and discarded. 1 ml of 1×PBS was added into pellet and resuspended gently. Cells were incubated for 1 minute at RT. Cells were centrifuged at 450 g for 5 min, RT (low brake). The supernatant was removed carefully without touching the pellet, leaving behind approx. 20-50 μl of PBS. 200 μl of cell cycle reagent was added into each tube. Cells were resuspended gently and mixed. Cells were incubated for 30 min at RT in the dark. The stained samples were transferred into 96-well plates and acquired on flow cytometer (Guava technologies). Percentage of cells in Sub (G0/G1) phase were determined based on the concept that cell cycle reagent contains PI stain, which stains DNA of cells in different phases of cell cycle; Sub (G0/G1), G1, S, G2 and M. Cells in Sub (G0/G1) phase correspond to apoptotic cells. Percent inhibition in apoptotic cells is determined by the formula:
=[(% Sub(G0/G1) cells in 5-FU/radiation alone)−(% Sub(G0/G1) cells in TI+5-FU/radiation)/% Sub(G0/G1) cells in 5-FU/radiation alone]*100

[4] = 0.01 μg/ml + Radiation (3.5 kGy)
[5] = 0.1 μg/ml + Radiation (3.5 kGy)

B1: SEQ ID NO 2: recombinant lectin, variant of the S. rolfsii lectin amino acid sequence (reported as Rec-2 in WO 2010/095143) (protein)
chain: TYKITVRVYQTNPDAFFHPVEKTVWKYANGGTWTITDDQHVLTMGGSGTSGTLRFHADNGESFTATFGVHNYKRWCDIVTNLAADETGMVINQQYYSQKNREEARERQLSNYQVKNAKGRNFQIVYTEAEGNDLHANLIIG
- Percentage Inhibition NF-kB (NF-kB; [4]): 11.8%
- Percentage Inhibition NF-kB (NF-kB; [5]): 9.9%
- Percentage Inhibition NF-kB (NF-kB; 1 μg/ml + Radiation (3.5 kGy)): 9.9%
- Percentage Inhibition NF-kB (NF-kB; 10 μg/ml + Radiation (3.5 kGy)): 4%
- Percentage Inhibition NF-kB (NF-kB; 25 μg/ml + Radiation (3.5 kGy)): −4%
- % Apoptotic cells (Annexin +ve) ([1]; 0.01 μg/ml + 5FU (10 mM)): 3%
- % Decrease in Apoptotic cells (with respect to 5-FU) ([1]; 0.01 μg/ml + 5FU (10 mM)): 81.7%
- % Apoptotic cells (Annexin +ve) ([1]; 1 μg/ml + 5FU (10 mM)): 3.1%
- % Decrease in Apoptotic cells (with respect to 5-FU) ([1]; 1 μg/ml + 5FU (10 mM)): 81.1%
- % Apoptotic cells (Annexin +ve) ([1]; 10 μg/ml + 5FU (10 mM)): 8%
- % Decrease in Apoptotic cells (with respect to 5-FU) ([1]; 10 μg/ml + 5FU (10 mM)): 51.5%
- % Apoptotic cells (Annexin +ve) ([1]; 50 μg/ml + 5FU (10 mM)): 19.3%
- % Decrease in Apoptotic cells (with respect to 5-FU) ([1]; 50 μg/ml + 5FU (10 mM)): −17.4%
- % Apoptotic cells (Annexin +ve) ([1]; 100 μg/ml + 5FU (10 mM)): 26%
- % Decrease in Apoptotic cells (with respect to 5-FU) ([1]; 100 μg/ml + 5FU (10 mM)): −58.5%
- % Protection [2, 4]: 2.5%
- maximum cytoprotection ([2]; 0.01 μg/ml-25 μg/ml, radiation): 54.1%
- % Protection [2, 5]: 14.1%
- % Protection ([2]; 1 μg/ml + Radiation (3.5 kGy)): 47.4%
- % Protection ([2]; 10 μg/ml + Radiation (3.5 kGy)): 54.1%
- % Protection ([2]; 25 μg/ml + Radiation (3.5 kGy)): 8.9%
- Percentage Inhibition IL-12/IL-23p40 (IL-12/IL-23p40; 0.1 μg/ml + 5-FU (10 mM)): 13.5%
- Percentage Inhibition IL-12/IL-23p40 (IL-12/IL-23p40; 10 μg/ml + 5-FU (10 mM)): 33.8%
- Percentage Inhibition IL-12/IL-23p40 (IL-12/IL-23p40; 25 μg/ml + 5-FU (10 mM)): 36.8%
- Percentage Inhibition IL-12/IL-23p40 (IL-12/IL-23p40; 50 μg/ml + 5-FU (10 mM)): 42.6%
- Percentage Inhibition IL-12/IL-23p40 (IL-12/IL-23p40; 100 μg/ml + 5-FU (10 mM)): 36.6%
- IL-12/IL-23p40 against chemotherapy induced levels (IL-12/IL-23p40): lowering of levels
- IL-12/IL-23p40 against chemotherapy induced levels (IL-12/IL-23p40; listed as test items): downregulation
- % Apoptotic cells (Sub G0/G1) ([3]; 0.1 μg/ml + 5FU (10 mM)): 11.4%
- % Decrease in Apoptotic cells (with respect to control) ([3]; 0.1 μg/ml + 5FU (10 mM)): 63.1%
- % Apoptotic cells (Sub G0/G1) ([3]; 10 μg/ml + 5FU (10 mM)): 6.8%
- % Decrease in Apoptotic cells (with respect to control) ([3]; 10 μg/ml + 5FU (10 mM)): 78%
- % Apoptotic cells (Sub G0/G1) ([3]; 25 μg/ml + 5FU (10 mM)): 14.2%
- % Decrease in Apoptotic cells (with respect to control) ([3]; 25 μg/ml + 5FU (10 mM)): 54.1%
- % Apoptotic cells (Sub G0/G1) ([3]; 50 μg/ml + 5FU (10 mM)): 40.7%
- % Decrease in Apoptotic cells (with respect to control) ([3]; 50 μg/ml + 5FU (10 mM)): −32.0%

Source: patent publication US20250064890A1, “PROTEIN COMPOSITIONS FOR THE TREATMENT OF INFLAMMATORY DISEASES” (Unichem Laboratories Limited, priority 2021, published 2025)
